Test results reported in patent publication US20210079074A1.

target: recombinant MS4A4A soluble polypeptide JS5; assay: ELISA, 0.4 ug/ml antibody; conditions: not given

| Binder | OD450 |
| --- | --- |
| anti-MS4A4A antibody 4A-357 (antibody, V domains shown) VH: QVQLVQSGSELKKPGASVKVSCKASGYIFTSYGLSWVRQAPGQGLEWMGWINTYSGVPTYAQGFTGRFVFSLDTSVSTAYLQISSLKAEDTAVYYCARTLADYWGQGTLVTVSS VL: DVVMTQSPLSLPVTLGQPASISCKSSQSLLYSDGKTYLSWFQQRPGQSPRRLIYEVSKLDSGVPDRFSGSGSGTDFTLKISRVEAEDVGVYYCWQGIDFHQTFGGGTKVEIK | 0.892 |
| anti-MS4A4A antibody 4A-366 (antibody, V domains shown) VH: QVQLVQSGSELKKPGASVKVSCKASGYTFTSYGLSWIRQAPGQGLEWMGWINTYSGVPTYAQGFTGRFVFSLDTSVSTAYLQISSLKAEDTAVYYCARTMVDYWGQGTLVTVSS VL: DVVMTQSPLSLPVTLGQPASISCKSSRSLLYSDGKTYLSWFQQRPGQSPRRLIYLVSKLDSGVPDRFSGSGSGTDFTLKISRVEAEDVGVYYCWQGIDFHQTFGGGTKVEIK | 0.875 |
| anti-MS4A4A antibody 4A-372 (antibody, V domains shown) VH: QVQLVQSGSELKKPGASVKVSCKASGYIFTSYGLSWVRQAPGQGLEWMGWINTYSGVPTYAQGFTGRFVFSLDTSVSTAYLQISSLKAEDTAVYYCARTLGDYWGQGTLVTVSS VL: DVVMTQSPLSLPVTLGQPASISCKSSQSLLYSDGKTYLSWFQQRPGQSPRRLIYLVSRLDSGVPDRFSGSGSGTDFTLKISRVEAEDVGVYYCWQGIDFHQTFGGGTKVEIK | 0.873 |
| anti-MS4A4A antibody 4A-363 (antibody, V domains shown) VH: QVQLVQSGSELKKPGASVKVSCKASGYIFTSYGLSWVRQAPGQGLEWMGWINTYSGVPTYAQGFTGRFVFSLDTSVSTAYLQISSLKAEDTAVYYCARTLADYWGQGTLVTVSS VL: DVVMTQSPLSLPVTLGQPASISCKSSQSLLYSDGKTYLSWFQQRPGQSPRRLIYLVSKLSSGVPDRFSGSGSGTDFTLKISRVEAEDVGVYYCWQGIDFHQTFGGGTKVEIK | 0.833 |
| anti-MS4A4A antibody 4A-371 (antibody, V domains shown) VH: QVQLVQSGSELKKPGASVKVSCKASGYIFTSYGLSWVRQAPGQGLEWMGWINTYSGVPTYAQGFTGRFVFSLDTSVSTAYLQISSLKAEDTAVYYCARTLGDYWGQGTLVTVSS VL: DVVMTQSPLSLPVTLGQPASISCKSSQSLLYSDGKTYLSWFQQRPGQSPRRLIYLVSKLDSGVPDRFSGSGSGTDFTLKISRVEAEDVGVYYCWQGIDFHQTFGGGTKVEIK | 0.955 |
| anti-MS4A4A antibody 4A-375 (antibody, V domains shown) VH: QVQLVQSGSELKKPGASVKVSCKASGYIFTSYGLSWVRQAPGQGLEWMGWINTYSGVPTYAQGFTGRFVFSLDTSVSTAYLQISSLKAEDTAVYYCARSLADYWGQGTLVTVSS VL: DVVMTQSPLSLPVTLGQPASISCKSSRSLLYSDGKTYLSWFQQRPGQSPRRLIYLVSKLDSGVPDRFSGSGSGTDFTLKISRVEAEDVGVYYCWQGIDFHQTFGGGTKVEIK | 0.996 |
| anti-MS4A4A antibody 4A-359 (antibody, V domains shown) VH: QVQLVQSGSELKKPGASVKVSCKASGYIFTSYGLSWVRQAPGQGLEWMGWINTYSGVPTYAQGFTGRFVFSLDTSVSTAYLQISSLKAEDTAVYYCARTLADYWGQGTLVTVSS VL: DVVMTQSPLSLPVTLGQPASISCKASQSLLYSDGKTYLSWFQQRPGQSPRRLIYLVSKLDSGVPDRFSGSGSGADFTLKISRVEAEDVGVYYCWQGIDFHQTFGGGTKVEIK | 0.892 |
| anti-MS4A4A antibody 4A-370 (antibody, V domains shown) VH: QVQLVQSGSELKKPGASVKVSCKASGYIFTSYGLSWVRQAPGQGLEWMGWINTYSGVPTYAQGFTGRFVFSLDTSVSTAYLQISSLKAEDTAVYYCARTLGDYWGQGTLVTVSS VL: DVVMTQSPLSLPVTLGQPASISCKSGQSLLYSDGKTYLSWFQQRPGQSPRRLIYLVSRLDSGVPDRFSGSGSGTDFTLKISRVEAEDVGVYYCWQGIDFHQTFGGGTKVEIK | 0.822 |
| anti-MS4A4A antibody 4A-367 (antibody, V domains shown) VH: QVQLVQSGSELKKPGASVKVSCKASGYTFTSYGLSWIRQAPGQGLEWMGWINTYSGVPTYAQGFTGRFVFSLDTSVSTAYLQISSLKAEDTAVYYCARTMVDYWGQGTLVTVSS VL: DVVMTQSPLSLPVTLGQPASISCKSSQSLLYSDGKTYLSWFQQRPGQSPRRLIYLVSKLDSGVPDRFSGSGSGTDFTLKISRVEAEDVGVYYCWQGIDFHQTFGGGTKVEIK | 0.961 |
| anti-MS4A4A antibody 4A-374 (antibody, V domains shown) VH: QVQLVQSGSELKKPGASVKVSCKASGYIFTSYGLSWVRQAPGQGLEWMGWINTYSGVPTYAQGFAGRFVFSLDTSVSTAYLQISSLKAEDTAVYYCARTLVDYWGQGTLVTVSS VL: DVVMTQSPLSLPVTLGQPASISCKSSRSLLYSDGKTYLSWFQQRPGQSPRRLIYLVSKLDSGVPDRFSGSGSGTDFTLKISRVEAEDVGVYYCWQGIDFHQTFGGGTKVEIK | 0.833 |
| anti-MS4A4A antibody 4A-364 (antibody, V domains shown) VH: QVQLVQSGSELKKPGASVKVSCKASGYTFTSYGLSWIRQAPGQGLEWMGWINTYSGVPTYAQGFTGRFVFSLDTSVSTAYLQISSLKAEDTAVYYCARTMVDYWGQGTLVTVSS VL: DVVMTQSPLSLPVTLGQPASISCKASQSLLYSDGKTYLSWFQQRPGQSPRRLIYLVSKLDSGVPDRFSGSGSGADFTLKISRVEAEDVGVYYCWQGIDFHQTFGGGTKVEIK | 0.959 |
| anti-MS4A4A antibody 4A-368 (antibody, V domains shown) VH: QVQLVQSGSELKKPGASVKVSCKASGYTFTSYGLSWIRQAPGQGLEWMGWINTYSGVPTYAQGFTGRFVFSLDTSVSTAYLQISSLKAEDTAVYYCARTMVDYWGQGTLVTVSS VL: DVVMTQSPLSLPVTLGQPASISCKSSQSLLYSDGKTYLSWFQQRPGQSPRRLIYLVSKLESGVPDRFSGSGSGTDFTLKISRVEAEDVGVYYCWQGIDFHQTFGGGTKVEIK | 0.901 |
| anti-MS4A4A antibody 4A-365 (antibody, V domains shown) VH: QVQLVQSGSELKKPGASVKVSCKASGYTFTSYGLSWIRQAPGQGLEWMGWINTYSGVPTYAQGFTGRFVFSLDTSVSTAYLQISSLKAEDTAVYYCARTMVDYWGQGTLVTVSS VL: DVVMTQSPLSLPVTLGQPASISCKSSQSLLYSDGKTYLSWFQQRPGQSPRRLIYLVSKLSSGVPDRFSGSGSGTDFTLKISRVEAEDVGVYYCWQGIDFHQTFGGGTKVEIK | 0.845 |
| anti-MS4A4A antibody 4A-361 (antibody, V domains shown) VH: QVQLVQSGSELKKPGASVKVSCKASGYIFTSYGLSWVRQAPGQGLEWMGWINTYSGVPTYAQGFTGRFVFSLDTSVSTAYLQISSLKAEDTAVYYCARTLADYWGQGTLVTVSS VL: DVVMTQSPLSLPVTLGQPASISCKSSQSLLYSDGKTYLSWFQQRPGQSPRRLIYLVSKLESGVPDRFSGSGSGTDFTLKISRVEAEDVGVYYCWQGIDFHQTFGGGTKVEIK | 0.79 |

target: human MS4A4A (human), Q96JQ5; assay: FACS, U937-huMS4A4A, 5 ug/ml; conditions: remark: other sources report otherwise

| Binder | MFI |
| --- | --- |
| anti-MS4A4A antibody 4A-21 (antibody, V domains shown) VH: QIQLVQSGPELKKPGETVKISCKASGYIFTSYGLSWVKQTPGKGLKWMGWINTYSGVPTYANDFKGRFAFSLETSASTTYLRINNLKNDDTATYFCARSLVDYWGQGTPLTVSS VL: not shown | 670 |

target: human MS4A4A (human), Q96JQ5; assay: FACS, U937-huMS4A4A, 5 ug/ml; conditions: remark: other sources report otherwise; remark: another data set of the same source

| Binder | MFI |
| --- | --- |
| anti-MS4A4A antibody 4A-21 (antibody, V domains shown) VH: QIQLVQSGPELKKPGETVKISCKASGYIFTSYGLSWVKQTPGKGLKWMGWINTYSGVPTYANDFKGRFAFSLETSASTTYLRINNLKNDDTATYFCARSLVDYWGQGTPLTVSS VL: not shown | 18800 |
